The text below walks through data of patent JP2021054739A (dated 2021).

In the assay the target is T1, Recombinant Human CEACAM-5/CD66e Protein, CF (R&D SYSTEMS) (human, UniProt P06731 35-685).
T1 construct: Bought recombinant protein, immobilised on a CM5 chip by amine coupling; also called 抗原CEACAM5
T1 sequence (looked up): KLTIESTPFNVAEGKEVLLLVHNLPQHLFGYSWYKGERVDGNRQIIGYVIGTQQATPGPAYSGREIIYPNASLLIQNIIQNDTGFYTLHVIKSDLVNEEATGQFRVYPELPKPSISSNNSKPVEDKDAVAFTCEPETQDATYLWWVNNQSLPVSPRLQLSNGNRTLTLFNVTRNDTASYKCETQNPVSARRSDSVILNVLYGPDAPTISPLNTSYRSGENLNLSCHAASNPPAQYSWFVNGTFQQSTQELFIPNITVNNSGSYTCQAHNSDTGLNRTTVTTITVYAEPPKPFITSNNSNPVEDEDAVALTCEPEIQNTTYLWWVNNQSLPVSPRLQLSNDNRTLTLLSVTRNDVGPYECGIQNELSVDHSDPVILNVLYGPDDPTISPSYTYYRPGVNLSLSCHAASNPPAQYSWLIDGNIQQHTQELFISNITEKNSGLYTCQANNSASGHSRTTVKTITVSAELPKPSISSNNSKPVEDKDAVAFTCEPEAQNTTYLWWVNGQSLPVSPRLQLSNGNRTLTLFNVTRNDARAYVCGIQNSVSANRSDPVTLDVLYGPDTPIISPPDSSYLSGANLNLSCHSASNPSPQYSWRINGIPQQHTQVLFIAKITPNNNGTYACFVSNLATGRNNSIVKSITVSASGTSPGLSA
Nature of the assay: SPR, Biacore T200; CEACAM5 immobilised on CM5 (279 RU), CEA-V2122 as analyte, single-cycle kinetics, bivalent analyte fit; KD = kd1/ka1. (SPR reads the build-up and loss of mass on a sensor chip optically.)

B1: CEA-V2122 (scFv)
chain: QVKLEQSGAEVVKPGASVKLSCKASGFNIKDSYMHWLRQGPGQRLEWIGWIDPENGDTEYAPKFQGKATFTTDTSANTAYLGLSSLRPEDTAVYYCNEGTPTGPYYFDYWGQGTLVTVSSGGGGSGGGGSGGGGSENVLTQSPSSMSVSVGDRVNIACSASSSVPYMHWLQQKPGKSPKLLIYLTSNLASGVPSRFSGSGSGTDYSLTISSVQPEDAATYYCQQRSSYPLTFGGGTKLEIKGGGGSGGGGAEAGITGTWSDQLGDTFIVTAGADGALTGTYENAVGGAESRYVLTGRYDSAPATDGSGTALGWTVAWKNNSKNAHSATTWSGQYVGGADAKINTQWLLTSGTTNANAWKSTLVGHDTFTKVKPSAASHHHHHH
notes: Fusion of an scFv with a streptavidin mutant; also called scFv-V2122; CEA-Cupid
For B1, the Kd came to 1.08 pM.
